B1: Azoarcus group I ribozyme (parent)
chain: GUGCCUUGCGCCGGGAAACCACGCAAGGGAUGGUGUCAAAUUCGGCGAAACCUAAGCGCCCGCCCGGGCGUAUGGCAACGCCGAGCCAAGCUUCGGCGCCUGCGCCGAUGAAGGUGUAGAGACUAGACGGCACCCACCUAAGGCAAACGCUAUGGUGAAGGCAUAGUCCAGGGAGUGGCGAAAGUCACACAAACCGG

Variants of: B1
Experiment: reverse-splicing fitness (ratio to wild type); higher = more active; in vitro selection; Mg2+ level not given
Outline: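 An in vitro group I ribozyme library with randomized positions was T7-transcribed and gel-purified. In triplicate, 10 pmol RNA in EPPS pH 7.5 was reacted with 50 pmoles of a 30-nt RNA substrate for 1 h at 37 °C across several added MgCl2 levels (1–48 mM), then stopped with EDTA. Products were reverse transcribed from a substrate-complementary primer, PCR-amplified and sequenced (HiSeq 4000). Fitness is a variant's read proportion after selection over that before, normalised to wild type.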
Variant C82U A111G A120G A145G U176G has a reverse-splicing fitness of 0.00429. Variant C82U A111G A120G A145G U176A has a reverse-splicing fitness of 0.0123. Variant C82U A111G A120G A145G U176C has a reverse-splicing fitness of 0.0192. C82U A111G A120G A145U C150A C169A showed a reverse-splicing fitness of 0.00822. With C82U A111G A120G A145U C150A C169G the reverse-splicing fitness was 0.00754. Work on C82U A111G A120G A145U C150A C169U yielded a reverse-splicing fitness of 0.00646. C82U A111G A120G A145G C150G C169U gave a reverse-splicing fitness of 0.00855. Work on C82U A111G A120G A145G C150G C169G yielded a reverse-splicing fitness of 0.00721. C82U A111G A120G A145G C150G C169A gave a reverse-splicing fitness of 0.00895. For C82U A111G A120G A145G C150G C169G U176C, the reverse-splicing fitness was 0.011. Work on C82U A111G A120G A145G C150G C169G U176G yielded a reverse-splicing fitness of 0.00529. C82U A111G A120G A145G C150G C169G U176A gave a reverse-splicing fitness of 0.00945. In the case of C82U A111G A120U A145C C150U C169A, the reverse-splicing fitness is reported as 0.00187. Work on C82U A111G A120U A145C C150U C169U yielded a reverse-splicing fitness of 0.00249. With C82U A111G A120U A145C C150U C169G the reverse-splicing fitness was 0.00245. With C82U A111G A120G A145C C150G C169A U176G the reverse-splicing fitness was 0.00439. Work on C82U A111G A120G A145C C150G C169A U176C yielded a reverse-splicing fitness of 0.00579. Variant C82U A111G A120G A145C C150G C169A U176A has a reverse-splicing fitness of 0.00781. Work on C82U A111G A120G A145G C150U C169G U176G yielded a reverse-splicing fitness of 0.00444. For C82U A111G A120G A145G C150U C169G U176A, the reverse-splicing fitness was 0.014. Work on C82U A111G A120G A145G C150U C169G U176C yielded a reverse-splicing fitness of 0.0168. In the case of C82U A111G A120G A145C C150G U176A, the reverse-splicing fitness is reported as 0.00404. With C82U A111G A120G A145C C150G U176C the reverse-splicing fitness was 0.00614. For C82U A111G A120G A145C C150G U176G, the reverse-splicing fitness was 0.00261. With C82U A111G A120G U176A the reverse-splicing fitness was 0.013. Work on C82U A111G A120G U176C yielded a reverse-splicing fitness of 0.0144. Work on C82U A111G A120G U176G yielded a reverse-splicing fitness of 0.00466. Variant C82U A111G A120G A145U C150A U176C has a reverse-splicing fitness of 0.013. In the case of C82U A111G A120G A145U C150A U176G, the reverse-splicing fitness is reported as 0.00406. Work on C82U A111G A120G A145U C150A U176A yielded a reverse-splicing fitness of 0.00974. C82U A111G A120C C150U C169U U176A showed a reverse-splicing fitness of 0.0154. Variant C82U A111G A120C C150U C169U U176G has a reverse-splicing fitness of 0.0054. C82U A111G A120C C150U C169U U176C gave a reverse-splicing fitness of 0.0151. With C82U A111G A120U A145C C150A the reverse-splicing fitness was 0.00504. Variant C82U A111G A120U A145C C150G has a reverse-splicing fitness of 0.00671. In the case of C82U A111G A120U A145C C150U, the reverse-splicing fitness is reported as 0.011. For C82U A111G A120U A145C C150A U176G, the reverse-splicing fitness was 0.002. C82U A111G A120U A145C C150A U176C gave a reverse-splicing fitness of 0.00275. For C82U A111G A120U A145C C150A U176A, the reverse-splicing fitness was 0.00269. C82U A111G A120G C150A C169U U176G gave a reverse-splicing fitness of 0.00765. In the case of C82U A111G A120G C150A C169U U176C, the reverse-splicing fitness is reported as 0.0157. In the case of C82U A111G A120G C150A C169U U176A, the reverse-splicing fitness is reported as 0.0248. Variant C82U A111G A120G C169A U176C has a reverse-splicing fitness of 0.023. With C82U A111G A120G C169A U176G the reverse-splicing fitness was 0.00398. Work on C82U A111G A120G C169A U176A yielded a reverse-splicing fitness of 0.0167. For C82U A111G A120G C150G U176G, the reverse-splicing fitness was 0.0029. With C82U A111G A120G C150G U176A the reverse-splicing fitness was 0.00527. C82U A111G A120G C150G U176C showed a reverse-splicing fitness of 0.00816. For C82U A111G A120G A145U C150G C169G, the reverse-splicing fitness was 0.00704. With C82U A111G A120G A145U C150G C169A the reverse-splicing fitness was 0.00861. C82U A111G A120G A145U C150G C169U showed a reverse-splicing fitness of 0.00832. For C82U A111G A120U A145C C150U C169G U176A, the reverse-splicing fitness was 0.00322. Work on C82U A111G A120U A145C C150U C169G U176C yielded a reverse-splicing fitness of 0.00203. C82U A111G A120U A145C C150U C169G U176G gave a reverse-splicing fitness of 0.00171. In the case of C82U A111G A120G A145U C169G U176G, the reverse-splicing fitness is reported as 0.00372. In the case of C82U A111G A120G A145U C169G U176A, the reverse-splicing fitness is reported as 0.0112. Work on C82U A111G A120G A145U C169G U176C yielded a reverse-splicing fitness of 0.0118. C82U A111G A120G A145U C150A C169U U176G showed a reverse-splicing fitness of 0.0048. Variant C82U A111G A120G A145U C150A C169U U176C has a reverse-splicing fitness of 0.0142. With C82U A111G A120G A145U C150A C169U U176A the reverse-splicing fitness was 0.019. C82U A111G A120G C150G C169U U176A showed a reverse-splicing fitness of 0.0121. C82U A111G A120G C150G C169U U176C showed a reverse-splicing fitness of 0.0124. In the case of C82U A111G A120G C150G C169U U176G, the reverse-splicing fitness is reported as 0.00601. For C82U A111G A120G A145U C150G U176G, the reverse-splicing fitness was 0.00321. Variant C82U A111G A120G A145U C150G U176C has a reverse-splicing fitness of 0.00779. C82U A111G A120G A145U C150G U176A gave a reverse-splicing fitness of 0.00535. With C82U A111G A120G A145C C150U C169U U176C the reverse-splicing fitness was 0.0091. With C82U A111G A120G A145C C150U C169U U176A the reverse-splicing fitness was 0.0196. C82U A111G A120G A145C C150U C169U U176G gave a reverse-splicing fitness of 0.00413. Work on C82U A111G A120U A145C C150G C169A U176C yielded a reverse-splicing fitness of 0.00258. For C82U A111G A120U A145C C150G C169A U176A, the reverse-splicing fitness was 0.00187. C82U A111G A120U A145C C150G C169A U176G showed a reverse-splicing fitness of 0.00209. For C82U A111G A120G A145G C150G C169A U176G, the reverse-splicing fitness was 0.00756. C82U A111G A120G A145G C150G C169A U176A gave a reverse-splicing fitness of 0.0123. Work on C82U A111G A120G A145G C150G C169A U176C yielded a reverse-splicing fitness of 0.0117. Variant C82U A111G A120G A145G C150U C169U U176C has a reverse-splicing fitness of 0.0162. For C82U A111G A120G A145G C150U C169U U176A, the reverse-splicing fitness was 0.0187. In the case of C82U A111G A120G A145G C150U C169U U176G, the reverse-splicing fitness is reported as 0.00525. Work on C82U A111G A120G A145G C150A C169U U176G yielded a reverse-splicing fitness of 0.00573. With C82U A111G A120G A145G C150A C169U U176A the reverse-splicing fitness was 0.0215. With C82U A111G A120G A145G C150A C169U U176C the reverse-splicing fitness was 0.0156. C82U A111G A120G A145U C169U U176A gave a reverse-splicing fitness of 0.0208. C82U A111G A120G A145U C169U U176G showed a reverse-splicing fitness of 0.00342.

From the RNAGym collection of RNA variant scans (doi:10.1093/molbev/msab373)
